Measurements reported in patent publication US6569833B1, “Cyclin dependent kinase binding peptides” (Cyclacel Limited, priority 1995, dated 2003).
One block for each molecule: values may come before it.

Legend:
[1] = biological target: T1, cdk4 (Homo sapiens, UniProt P11802); assay: Peptide precipitation of in vitro translated 35S-labelled cdk4 from reticulocyte lysate; format: binding; settings: biotinylated peptide on streptavidin agarose beads, densitometry
T1 construct: host or cells: coupled in vitro transcription/translation in rabbit reticulocyte lysate
Procedure: (§1) A 20 aa peptide library with a 5 aa overlap of p16 (apart from the first 8 N-terminal residues) was synthesised adding a SGSG linker to the N-terminus to which a biotin group was coupled. The alanine substitution series of peptide 6 was synthesised in the same way. The peptides were coupled to streptavidin immobilised on agarose beads and washed 4 times in PBS before incubating for 1 hour on ice with rabbit reticulocyte lysate (Promega) containing ^35S-methionine labelled cdk4 or cdk6. The beads were washes 4 times in 1.2×PBS with 0.2% Triton X-100 before addition of SDS loading buffer and applied to 12% SDS polyacrylamide gels. The gels were exposed to an autoradiography film and the bands corresponding to cdk4 and cdk6 were analysed by densitometry.
(§2) To study the binding of peptides to cdk4 and cdk6 we expressed the proteins in a coupled in vitro reticulocyte translation system in the presence of ^35S labelled methionine. A biotin group coupled to a Ser-Gly-Ser-Gly-linker at the N-terminus of the peptides was coupled to streptavidin coated agarose beads and incubated with the cell lysates.

[2] = biological target: T2, cdk4-cyclin D (Homo sapiens, UniProt P11802); assay: pRb phosphorylation in vitro by Sf9 lysates containing cdk4 and cyclin D; format: biochemical; design: dose or concentration left out as unconfirmed; settings: full length Rb protein
T2 construct: made in house; host or cells: Sf9 insect cells infected with baculovirus (separate crude lysates for cdk4 and cyclin D, mixed in the assay)
Procedure: Peptides were incubated at a concentration of […] in a buffer containing 50 mM Hepes pH 7.4, 10 mM MgCl2, 2.5 mM EGTA, 1 mM DTT, 10 mM β-glycerophosphate, 1 mM NaF and 1 mM Na3VO4 and […] of extract from Sf9 insect cells infected with human cdk4-expressing baculovirus lysed in 10 mM Hepes pH 7.4, 10 mM NaCl, 1 mM EDTA and 0.5 mM PMSF. The mixture was incubated for 60 minutes on ice. Human cyclin D containing Sf9 lysate ([…]) prepared as above was added together with 0.6 mg of purified recombinant full length Rb protein and 2.5 mM ^32P ATP in a final concentration of […] ATP and incubated for 10 minutes at +30° C., the reaction was terminated by addition of SDS loading buffer and loaded onto 8% SDS polyacrylamide gels. The gels were either exposed to autoradiographic film (FIG. 2A) or the levels of pRb phosphorylation were estimated by a Phosphoimager (FIG. 2B).

[3] = biological target: T3, cdk6 (Homo sapiens, UniProt Q00534); assay: Peptide precipitation of in vitro translated 35S-labelled cdk6 from reticulocyte lysate; format: binding; settings: biotinylated peptide on streptavidin agarose beads, densitometry
T3 construct: host or cells: coupled in vitro transcription/translation in rabbit reticulocyte lysate
T3 sequence (Q00534 whole entry): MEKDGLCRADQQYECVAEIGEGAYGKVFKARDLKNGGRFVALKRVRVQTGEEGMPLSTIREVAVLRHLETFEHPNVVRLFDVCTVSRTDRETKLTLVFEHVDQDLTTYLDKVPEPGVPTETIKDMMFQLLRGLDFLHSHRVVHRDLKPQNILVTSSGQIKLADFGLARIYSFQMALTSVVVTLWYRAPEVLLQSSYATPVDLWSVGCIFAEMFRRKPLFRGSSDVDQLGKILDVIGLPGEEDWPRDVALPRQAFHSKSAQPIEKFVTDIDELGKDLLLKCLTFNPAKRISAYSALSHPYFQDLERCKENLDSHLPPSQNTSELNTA
Procedure: as §1, §2

[4] = biological target: T2, cdk4-cyclin D; assay: pRb phosphorylation in vitro by Sf9 lysates containing cdk4 and cyclin D; format: biochemical; settings: for block of cdk4-cyclin D dependent pRb phosphorylation: 50 μM peptide, dilution series
[5] = biological target: cdk4 (human, UniProt P11802 1-303); assay: cell-based or functional assay
[6] = tested on: HaCaT cells; assay: Cell cycle inhibition: S-phase entry of serum-starved cells by BrdU incorporation; format: cell-based, human; settings: 10 μM peptide concentration
Procedure: Cells were synchronised in G0 by serum starvation for 72 hours before serum and 10 μM BrdU were added. […] The data presented show % inhibition of cells entering S-phase after incubation with peptide 6 coupled to Penetratin in relation to cells incubated with serum only.
A cysteine residue was added to the C-terminus of peptide 6 and used for coupling to the 16 amino acids long Penetratin peptide (amino acid sequence RQIKIWFQNRRMKWKK)(SEQ ID NO:3) of the Antennapedia homeodomain (24) (Appligen) by means of a disulzhide bond. Cells were seeded on cover slips prior to starvation for 72 hours in DMEM medium without FCS. The medium was substituted by DMM containing 10% FCS and BrdU. The coupled peptides were added at different time points after serum stimulation. The number of cells entering S-phase was determined by estimating the numbers of cells incorporating BrdU at 24 hours by fixing the cells on cover slips in acetone/methanol (1:1), incubating in 1M HCl for 30 minutes, washing 6 times in PBS and then incubating with anti-BrdU monoclonal antibody and Texas Red conjugated secondary antibody and mounted in Mowiol containing Hoescht. At least six different areas on three different cover slips were counted for each single experiment which was repeated at least two times. The values presented in FIG. 3A show one representative experiment.

[7] = biological target: T4, peptide 6 with residue 94 substituted by alanine
T4 chain: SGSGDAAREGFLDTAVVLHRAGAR

[8] = biological target: T5, peptide 6 (amino acids 84 to 103 of p16), biotinylated via N-terminal SGSG linker
T5 chain: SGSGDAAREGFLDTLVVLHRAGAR

[9] = biological target: peptide 10 of the p16 20 aa peptide library
[10] = biological target: T6, peptide 6 with aspartic acid 92 substituted by alanine
T6 chain: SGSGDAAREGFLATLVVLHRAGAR

[11] = biological target: peptide 1 of the p16 20 aa peptide library

Molecule: Ala94: peptide 6 with the single alanine substitution at residue 94 (SGSGDAAREGFLDTAVVLHRAGAR)
block of cdk4-cyclin D dependent pRb phosphorylation [4]: completely inactivates the function of peptide 6

Molecule: DAAPEGFLDTLVVLHRAGAR [R87P, p16 84-103 peptide with the R87P substitution]
inhibition of pRb phosphorylation [2]: does not hamper the function of the peptide

Molecule: DAAREGFLDTLVVLHGSGAR (SGSGDAAREGFLDTLVVLHGSGAR) [mouse p16 peptide, peptide derived from mouse p16 corresponding to the 84-103 region of p16]
relative binding to in vitro expressed cdk4 [1]: binds
inhibition of pRb phosphorylation [2]: inhibit pRb phosphorylation
relative binding to in vitro expressed cdk6 [3]: binds

Molecule: FLDTLVVLHRAGAR [peptide 8, 14 aa peptide of the p16 deletion series]
inhibition of pRb phosphorylation [2]: able to exert a biological effect which is the same or analogous to that of full length p16

Molecule: FLDTLVVLHRAG [peptide 9, 12 aa peptide of the p16 deletion series]
inhibition of pRb phosphorylation [2]: able to exert a biological effect which is the same or analogous to that of full length p16

Molecule: EGFLDTLVVLHRAGAR [peptide 7, 16 aa peptide of the p16 deletion series]
inhibition of pRb phosphorylation [2]: able to exert a biological effect which is the same or analogous to that of full length p16

Molecule: Ala92: peptide 6 in which aspartic acid 92 is substituted by alanine (SGSGDAAREGFLATLVVLHRAGAR)
relative binding to in vitro expressed cdk4 [1]: more potent binding
inhibition of pRb phosphorylation [2]: even more efficiently than the wild type peptide 6
block of cdk4-cyclin D dependent pRb phosphorylation ([4]; listed as Ala92 peptide): almost completely blocked
block of cdk4-cyclin D dependent pRb phosphorylation ([4]; listed as Ala-92): nearly complete
relative binding to in vitro expressed cdk6 [3]: more potent binding

B1: cdk4 (protein)
chain: MATSRYEPVAEIGVGAYGTVYKARDPHSGHFVALKSVRVPNGGGGGGGLPISTVREVALLRRLEAFEHPNVVRLMDVCATSRTDREIKVTLVFEHVDQDLRTYLDKAPPPGLPAETIKDLMRQFLRGLDFLHANCIVHRDLKPENILVTSGGTVKLADFGLARIYSYQMALTPVVVTLWYRAPEVLLQSTYATPVDMWSVGCIFAEMFRRKPLFCGNSEADQLGKIFDLIGLPPEDDWPRDVSLPRGAFPPRGPRPVQSVVPEMEESGAQLLLEMLTFNPHKRISAFRALQHSYLHKDEGNPE
pRb phosphorylation (dilution series) [7]: the single substitution Ala94 completely inactivates the function of peptide 6 in this assay
level of pRb phosphorylation by Sf9 lysates containing cdk4 and cyclin D [8]: significantly reduces the level of pRb phosphorylation
pRb phosphorylation [9]: do not affect pRb phosphorylation
phosphorylation of the full length Rb protein by Sf9 lysates containing cdk4 and cyclin D [10]: inhibits phosphorylation of the full length Rb protein even more efficiently than the wild type peptide 6
pRb phosphorylation [11]: do not affect pRb phosphorylation

Continued, in another order:

relative binding to in vitro expressed cdk4 [1]: severely reduced
inhibition of pRb phosphorylation [2]: severely reduced
relative binding to in vitro expressed cdk6 [3]: severely reduced
Molecule: AREGFLDTLVVLHRAGAR (SGSGAREGFLDTLVVLHRAGAR) [peptide 6 in FIGS. 5A-C, deletion series peptide, 2 residues removed at the N-terminus of the p16 84-103 peptide]

50% kinase inhibitory concentration, fold increase against wild type His-tagged p16 [5]: 5 fold
Molecule: His-tagged p16 protein with the VV.95,96AA mutations (from UniProt P42771 1-156)

inhibition of cdk-cyclin D kinase activity ([4]; 36aa Penetratin-linked peptides, increasing concentrations (FIG. 6A)): less active
Molecule: peptide 21: 36aa synthetic peptide (Penetratin sequence plus 20aa p16 peptide) that carries the VV.95,96AA mutation (RQIKIWFQNRRMKWKKDAAREGFLDTLAALHRAGAR)
block of S-phase entry [6]: significantly less active in vivo
block of S-phase entry ([6]; listed as pep21): only marginal effect

relative binding to in vitro expressed cdk4 [1]: binds
inhibition of pRb phosphorylation [2]: inhibit pRb phosphorylation
relative binding to in vitro expressed cdk6 [3]: binds
Molecule: DAARAGFLDTLQTLLEFQAD (SGSGDAARAGFLDTLQTLLEFQAD) [p18 peptide, peptide derived from p18 corresponding to the 84-103 region of p16]

50% kinase inhibitory concentration, fold increase [5]: ~5 fold
B2: peptide 21 (36 aa synthetic peptide, Penetratin-p16 peptide carrying the VV.95,96AA mutation) (peptide)
peptide: RQIKIWFQNRRMKWKKDAAREGFLDTLAALHRAGAR
